Source: patent US20200377608A1 (ADAGENE, published 2020)

Molecular target: T1, Recombinant human CD137 protein (human, UniProt Q07011 24-186)
T1 construct: also called CD137 receptor; 4-1BB
Test: competition ELISA against biotinylated CD137 ligand on coated human CD137

B1: αCD137-AB1 (antibody, human IgG4 S228P, kappa, V domains shown)
VH: EVQLVESGGGLVQPGGSLRLSCAASGFSLSTGGVGVGWIRQAPGKGLEWLALIDWADDKYYSPSLKSRLTISRDNSKNTLYLQLNSLRAEDTAVYYCARGGSDTVIGDWFAYWGQGTLVTVSS
VL: DIQLTQSPSSLSASVGDRVTITCRASQSIGSYLAWYQQKPGKAPKLLIYDASNLETGVPSRFSGSGSGTDFTLTISSLQPEDFATYYCQQGYYLWTFGQGTKVEIKR
notes: also called AG10131; Hit ID 5365
B1: binds.
